Reference: patent publication US20060233806A1 (JAPAN SCIENCE AND TECHNOLOGY AGENCY, published 2006)

Target: T1, mouse integrin αvβ3 on NIH3T3 cells (mouse, UniProt P43406 31-1044; O54890 26-787)
T1 construct: whole, on cells; Presented on NIH3T3 transformants; also called αvβ3 integrin; 3T3/αvβ3
Experiment: cell adhesion assay on PS-coated wells pretreated with D89E
Procedure: Peroxidase activity was detected using a peroxidase-detecting kit (Sumitomo Bakelite). To assay the ability of MFG-E8 to link the cells to phospholipids, MFG-E8 was bound to microtiter plates coated with phospholipids as described above. In tyrode buffer containing the cells (4×10⁴) (5 mM Hepes-NaOH buffer [pH 7.4], 135 mM NaCl, 5.4 mM KCl, 1.0 mM MgCl₂, 10 mM glucose, and 10 mg/ml BSA) was added to each well, and incubated at room temperature for 1 hour. The cells that had adhered to the plates were quantified by a CyQUANT Cell Proliferation Assay kit (Molecular Probes) using a fluorescent microplate reader (BioLumin 960, Molecular Dynamics) set at excitation wavelength of 485 nm and emission wavelength of 520 nm.
Therefore, the possibility that MFG-E8-L might bind to integrin-expressing cells after said cells are bound to phospholipids was investigated. Microtiter wells coated with PS or PE were successively incubated with three different concentrations (0.1, 1.0 and 2.0 μg/ml) of MFG-E8-L or D89E, and with NIH3T3 (3T3/WT) or αᵥβ₃ integrin-expressing transformants (3T3/αᵥβ₃), and subjected to cell adhesion assay. The number of cells attached to the wells was quantified as described in the methods described in Example A-6. […] D89E mutant was not capable of intermediating the adhering of NIH3T3 cells to the wells coated with PS. […]

T1 sequence (P43406 31-1044, chain 1 of 2): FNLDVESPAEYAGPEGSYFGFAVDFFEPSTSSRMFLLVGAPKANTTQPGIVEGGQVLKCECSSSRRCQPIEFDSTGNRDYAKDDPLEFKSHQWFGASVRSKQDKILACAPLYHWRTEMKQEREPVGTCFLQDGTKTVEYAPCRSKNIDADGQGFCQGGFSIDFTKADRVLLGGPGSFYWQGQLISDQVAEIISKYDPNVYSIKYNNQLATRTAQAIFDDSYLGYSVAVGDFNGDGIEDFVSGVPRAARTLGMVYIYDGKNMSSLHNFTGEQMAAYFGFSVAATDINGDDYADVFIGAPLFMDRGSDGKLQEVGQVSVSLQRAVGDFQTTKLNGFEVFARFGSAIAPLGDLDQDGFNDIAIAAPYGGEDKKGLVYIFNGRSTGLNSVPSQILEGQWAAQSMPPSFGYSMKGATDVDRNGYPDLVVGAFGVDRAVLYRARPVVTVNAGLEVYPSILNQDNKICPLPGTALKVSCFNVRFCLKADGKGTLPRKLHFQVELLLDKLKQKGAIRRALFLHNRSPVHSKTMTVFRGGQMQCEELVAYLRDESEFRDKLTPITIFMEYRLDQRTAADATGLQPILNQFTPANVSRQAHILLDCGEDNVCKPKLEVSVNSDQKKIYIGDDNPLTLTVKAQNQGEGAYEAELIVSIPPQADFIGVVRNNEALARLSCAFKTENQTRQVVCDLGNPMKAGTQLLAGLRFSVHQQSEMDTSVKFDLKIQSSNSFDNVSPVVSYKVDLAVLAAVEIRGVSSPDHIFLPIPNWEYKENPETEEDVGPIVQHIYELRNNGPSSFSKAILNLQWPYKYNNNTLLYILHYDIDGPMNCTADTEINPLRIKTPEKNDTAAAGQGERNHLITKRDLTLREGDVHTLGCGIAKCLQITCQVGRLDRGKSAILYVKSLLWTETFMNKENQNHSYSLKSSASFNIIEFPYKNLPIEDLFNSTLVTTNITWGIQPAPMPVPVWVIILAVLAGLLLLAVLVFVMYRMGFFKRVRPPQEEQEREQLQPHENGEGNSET
T1 sequence (O54890 26-787, chain 2 of 2): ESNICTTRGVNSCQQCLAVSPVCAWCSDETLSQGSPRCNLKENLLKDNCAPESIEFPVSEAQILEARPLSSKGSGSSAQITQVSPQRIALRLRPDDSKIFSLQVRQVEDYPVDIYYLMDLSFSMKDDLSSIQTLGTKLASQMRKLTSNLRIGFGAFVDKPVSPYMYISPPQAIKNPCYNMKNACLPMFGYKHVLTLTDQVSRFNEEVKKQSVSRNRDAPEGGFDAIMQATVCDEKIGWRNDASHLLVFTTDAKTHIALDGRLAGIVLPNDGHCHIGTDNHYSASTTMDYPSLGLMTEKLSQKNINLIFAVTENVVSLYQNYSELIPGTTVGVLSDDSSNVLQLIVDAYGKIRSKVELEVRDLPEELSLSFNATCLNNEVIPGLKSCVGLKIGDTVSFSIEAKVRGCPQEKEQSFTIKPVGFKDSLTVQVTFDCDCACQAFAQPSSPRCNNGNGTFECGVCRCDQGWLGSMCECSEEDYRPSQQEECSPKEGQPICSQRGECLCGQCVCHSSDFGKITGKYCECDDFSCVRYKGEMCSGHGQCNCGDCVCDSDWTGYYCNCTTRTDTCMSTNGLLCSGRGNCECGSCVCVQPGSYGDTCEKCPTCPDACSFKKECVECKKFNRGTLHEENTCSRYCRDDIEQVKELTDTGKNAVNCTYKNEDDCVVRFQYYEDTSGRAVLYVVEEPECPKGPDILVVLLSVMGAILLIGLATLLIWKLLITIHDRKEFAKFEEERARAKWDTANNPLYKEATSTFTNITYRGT

B1: D89E mutant of mouse MFG-E8-L (ligand)
chain: ASGDFCDSSLCLNGGTCLTGQDNDIYCLCPEGFTGLVCNETERGPCSPNPCYNDAKCLVTLDTQRGEIFTEYICQCPVGYSGIHCETETNYYNLDGEYMFTTAVPNTAVPTPAPTPDLSNNLASRCSTQLGMEGGAIADSQISASSVYMGFMGLQRWGPELARLYRTGIVNAWTASNYDSKPWIQVNLLRKMRVSGVMTQGASRAGRAEYLKTFKVAYSLDGRKFEFIQDESGGDKEFLGNLDNNSLKVNMFNPTLEAQYIRLYPVSCHRGCTLRFELLGCELHGCSEPLGLKNNTIPDSQMSASSSYKTWNLRAFGWYPHLGRLDNQGKINAWTAQSNSAKEWLQVDLGTQRQVTGIITQGARDFGHIQYVASYKVAHSDDGVQWTVYEEQGSSKVFQGNLDNNSHKKNIFEKPFMARYVRVLPVSWHNRITLRLELLGC
notes: Point mutation in the RGD motif of the second EGF domain; Expressed in human 293T cells; also called D89 mutant; not shown: FLAG marker peptide at the C-terminus (derivatives were detected with anti-FLAG)
binding result: no binding (tested: 0.1, 1.0 and 2.0 µg/ml)
